Source: the supplement of paper PMC6757056
± gives the standard deviation of the averaged measurements.

B1: library; a variant is named by its letters at N, in order (parent)
chain: GCUGUCACCGGUGUAUUACCCUAGUGGUCGACCGGUCUGAUGAGUCUNNNNNNAGACGAAACAGC

What was measured:
hypoxanthine [1] = variants of: B1; experiment: FACS-Seq fitted mean relative fluorescence mCherry/BFP without ligand (log10 relative fluorescence); ligand: hypoxanthine (xanthine aptamer); higher = higher reporter protein expression; conditions: HEK293T, ligand present: no
Description: (§1)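 Hammerhead (sTRSV) ribozyme switch libraries with a ligand aptamer grafted on stem I and a randomized N4-6 loop II, cloned into the 3' UTR of mCherry and transiently transfected into HEK293T cells; RNA-Seq 72 h post transfection with ligand added 1 h before transfection; RNA read count / plasmid DNA read count normalized to the non-cleaving sTRSVctl (x100), log10; sequences with >100 DNA reads. FACS-Seq: lentiviral library sorted into 6 bins after 48 h ligand, log-normal fit mean of mCherry/BFP scaled to controls. Printed sequences are partial switch sequences.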

hypoxanthine [2] = variants of: B1; experiment: normalized RNA/DNA level with ligand (relative to sTRSVctl = 100) (log10 (% of sTRSVctl)); ligand: hypoxanthine (xanthine aptamer); higher = less ribozyme self-cleavage, higher mRNA level; conditions: ligand concentration (+) RNA-Seq: 5 mM, HEK293T, reporter: mCherry (pCS4076), ligand present: yes
Description: as §1

hypoxanthine [3] = variants of: B1; experiment: normalized RNA/DNA level without ligand (relative to sTRSVctl = 100) (log10 (% of sTRSVctl)); ligand: hypoxanthine (xanthine aptamer); higher = less ribozyme self-cleavage, higher mRNA level; conditions: HEK293T, reporter: mCherry (pCS4076), ligand present: no
Description: as §1

hypoxanthine [4] = variants of: B1; experiment: FACS-Seq fitted mean relative fluorescence mCherry/BFP with ligand (log10 relative fluorescence); ligand: hypoxanthine (xanthine aptamer); ligand concentration (+) FACS-Seq: 5 mM; higher = higher reporter protein expression; conditions: HEK293T, ligand present: yes
Description: as §1

Variant	FACS-Seq fitted mean (log10) (hypoxanthine [1])	normalized RNA/DNA level with ligand (log10) (hypoxanthine [2])	normalized RNA/DNA level without ligand (log10) (hypoxanthine [3])	FACS-Seq fitted mean (log10) (hypoxanthine [4])
CAAACC	0.631 ± 0.0022	1.96 ± 0.046	1.867 ± 0.0027	0.622 ± 0.027
GAAACC	0.401 ± 0.023	1.897 ± 0.011	1.85 ± 0.022	0.469 ± 0.033
GAAACG	0.287 ± 0.024	1.88 ± 0.023	1.51 ± 0.048	0.561 ± 0.048
AAAACG	0.284 ± 0.015	1.85 ± 0.053	1.43 ± 0.017	0.616 ± 0.077
AAAACU	0.313 ± 0.03	1.91 ± 0.093	1.8616 ± 0.00097	0.4 ± 0.12
GAAACU	0.54 ± 0.047	1.92 ± 0.042	1.89 ± 0.039	0.481 ± 0.042
AAAAGA	0.199 ± 0.0066	1.91 ± 0.053	1.67 ± 0.025	0.556 ± 0.061
GAAAGA	0.507 ± 0.093	1.92 ± 0.029	1.71 ± 0.033	0.581 ± 0.065
GAAAGC	0.368 ± 0.056	1.86 ± 0.028	1.39 ± 0.084	0.776 ± 0.043
UAAAGC	0.687 ± 0.044	1.92 ± 0.024	1.799 ± 0.0067	0.694 ± 0.029
AAAAGG	0.163 ± 0.004	1.78 ± 0.06	1.26 ± 0.027	0.725 ± 0.056
GAAAGG	0.141 ± 0.013	1.74 ± 0.029	1.2 ± 0.07	0.614 ± 0.017
UAAAGG	0.355 ± 0.035	1.84 ± 0.023	1.45 ± 0.05	0.675 ± 0.094
CAAAGU	0.529 ± 0.021	1.89 ± 0.0058	1.82 ± 0.033	0.571 ± 0.0084
AAAAGU	0.21 ± 0.0047	1.854 ± 0.011	1.55 ± 0.032	0.339 ± 0.09
GAAAGU	0.233 ± 0.011	1.91 ± 0.022	1.752 ± 0.0063	0.17 ± 0.018
UAAAGU	0.334 ± 0.017	1.89 ± 0.05	1.54 ± 0.076	0.708 ± 0.063
CAAAUA	0.317 ± 0.014	1.9 ± 0.06	1.7391 ± 0.00044	0.196 ± 0.037
GAAAUA	0.105 ± 0.023	1.92 ± 0.055	1.85 ± 0.028	0.082 ± 0.037
UAAAUA	0.398 ± 0.012	1.92 ± 0.026	1.836 ± 0.002	0.49 ± 0.045
CAAAUC	0.445 ± 0.1	1.95 ± 0.039	1.927 ± 0.0086	0.495 ± 0.037
AAAAUG	0.362 ± 0.024	1.857 ± 0.017	1.51 ± 0.044	0.671 ± 0.053
GAAAUG	0.0921 ± 0.028	1.86 ± 0.075	1.44 ± 0.035	0.497 ± 0.047
UAAAUG	0.306 ± 0.023	1.936 ± 0.015	1.73 ± 0.035	0.483 ± 0.081

Variant	FACS-Seq fitted mean (log10) (hypoxanthine [1])	normalized RNA/DNA level with ligand (log10) (hypoxanthine [2])	normalized RNA/DNA level without ligand (log10) (hypoxanthine [3])	FACS-Seq fitted mean (log10) (hypoxanthine [4])
AAAAUU	0.401 ± 0.01	1.93 ± 0.04	1.86 ± 0.041	0.491 ± 0.064
UAAAUU	0.543 ± 0.057	1.92 ± 0.024	1.85 ± 0.035	0.516 ± 0.066
AAACAA	0.4127 ± 0.0021	1.902 ± 0.011	1.73 ± 0.022	0.382 ± 0.014
GAACAA	0.477 ± 0.021	1.91 ± 0.046	1.732 ± 0.0073	0.62 ± 0.022
UAACAA	-0.143 ± 0.032	1.9154 ± 0.0012	1.7546 ± 0.00028	-0.012 ± 0.012
CAACAC	0.465 ± 0.089	1.895 ± 0.0089	1.69 ± 0.047	0.206 ± 0.043
GAACAC	0.66 ± 0.029	1.95 ± 0.029	1.74 ± 0.024	0.622 ± 0.049
AAACAG	-0.248 ± 0.031	1.77 ± 0.058	1.35 ± 0.055	0.234 ± 0.03
GAACAG	0.213 ± 0.041	1.8069 ± 0.00086	1.42 ± 0.061	0.674 ± 0.014
UAACAG	0.366 ± 0.019	1.849 ± 0.012	1.5574 ± 0.00043	0.581 ± 0.031
CAACAU	0.722 ± 0.052	1.87 ± 0.032	1.75 ± 0.035	0.672 ± 0.078
GAACAU	0.466 ± 0.11	1.907 ± 0.00016	1.766 ± 0.01	0.349 ± 0.12
AAACAU	0.519 ± 0.022	1.86 ± 0.028	1.762 ± 0.0068	0.664 ± 0.099
GAACCA	0.493 ± 0.094	1.948 ± 0.018	1.816 ± 0.014	0.365 ± 0.0063
AAACCA	0.0882 ± 0.014	1.924 ± 0.014	1.81 ± 0.016	0.122 ± 0.038
AAACCC	0.474 ± 0.095	1.95 ± 0.022	1.833 ± 0.0068	0.431 ± 0.021
UAACCC	0.667 ± 0.078	1.94 ± 0.08	1.856 ± 0.0018	0.767 ± 0.065
GAACCG	0.156 ± 0.11	1.9 ± 0.08	1.48 ± 0.052	0.296 ± 0.017
AAACCG	0.278 ± 0.022	1.8 ± 0.029	1.37 ± 0.029	0.73 ± 0.045
UAACCG	0.631 ± 0.023	1.95 ± 0.04	1.68 ± 0.033	0.756 ± 0.013
AAACCU	0.484 ± 0.082	1.94 ± 0.033	1.87 ± 0.02	0.2749 ± 0.00055
CAACGA	0.153 ± 0.16	1.951 ± 0.011	1.79 ± 0.036	0.353 ± 0.055
GAACGA	0.281 ± 0.023	1.91 ± 0.049	1.62 ± 0.046	0.454 ± 0.011
AAACGA	0.38 ± 0.042	1.908 ± 0.0036	1.63 ± 0.046	0.5899 ± 0.0039

Variant	FACS-Seq fitted mean (log10) (hypoxanthine [1])	normalized RNA/DNA level with ligand (log10) (hypoxanthine [2])	normalized RNA/DNA level without ligand (log10) (hypoxanthine [3])	FACS-Seq fitted mean (log10) (hypoxanthine [4])
UAACGA	0.432 ± 0.054	1.91 ± 0.033	1.6909 ± 0.0004	0.324 ± 0.072
CAACGC	0.362 ± 0.014	1.92 ± 0.073	1.87 ± 0.019	0.326 ± 0.019
GAACGC	0.366 ± 0.038	1.85 ± 0.038	1.592 ± 0.0033	0.684 ± 0.031
UAACGC	0.329 ± 0.043	1.92 ± 0.058	1.74 ± 0.031	0.365 ± 0.011
GAACGG	-0.137 ± 0.019	1.74 ± 0.081	1.22 ± 0.085	0.484 ± 0.059
AAACGG	0.034 ± 0.0048	1.73 ± 0.061	1.23 ± 0.082	0.486 ± 0.027
UAACGG	0.07847 ± 0.00013	1.82 ± 0.083	1.376 ± 0.0076	0.473 ± 0.081
AAACGU	0.362 ± 0.036	1.877 ± 0.0019	1.63 ± 0.043	0.519 ± 0.03
UAACGU	0.145 ± 0.021	1.914 ± 0.01	1.61 ± 0.038	0.365 ± 0.051
CAACUA	0.494 ± 0.084	1.93 ± 0.029	1.709 ± 0.011	0.695 ± 0.016
GAACUA	0.557 ± 0.024	1.873 ± 0.012	1.815 ± 0.0032	0.182 ± 0.072
UAACUA	0.0691 ± 0.014	1.921 ± 0.0071	1.879 ± 0.0092	-0.0104 ± 0.0014
UAACUG	0.142 ± 0.042	1.896 ± 0.018	1.64 ± 0.017	0.31 ± 0.084
AAACUG	0.227 ± 0.039	1.822 ± 0.0094	1.43 ± 0.051	0.46 ± 0.021
CAACUU	0.257 ± 0.007	1.95 ± 0.043	1.873 ± 0.0032	0.377 ± 0.026
GAACUU	0.731 ± 0.013	1.91 ± 0.11	1.8654 ± 0.0014	0.616 ± 0.025
AAACUU	0.777 ± 0.048	1.92 ± 0.011	1.856 ± 0.0063	0.674 ± 0.075
CAAGAA	0.513 ± 0.021	1.89 ± 0.03	1.7 ± 0.044	0.45 ± 0.091
GAAGAA	0.4206 ± 0.0035	1.9256 ± 0.00044	1.677 ± 0.013	0.5245 ± 0.001
UAAGAA	0.349 ± 0.3	1.91 ± 0.025	1.68 ± 0.011	0.395 ± 0.051
AAAGAA	0.0245 ± 0.07	1.9 ± 0.028	1.715 ± 0.0039	0.207 ± 0.017
GAAGAC	0.249 ± 0.014	1.921 ± 0.0023	1.63 ± 0.026	0.505 ± 0.069
UAAGAC	0.419 ± 0.024	1.87 ± 0.05	1.82 ± 0.035	0.507 ± 0.024
